Laboratory results reported in PMC12912276 (Nature cell biology, 2025).

Biological target: T1, His-SUMO-C-GB1 (SETD2 region C) (UniProt Q9BYW2 817-1322)
T1 sequence (looked up): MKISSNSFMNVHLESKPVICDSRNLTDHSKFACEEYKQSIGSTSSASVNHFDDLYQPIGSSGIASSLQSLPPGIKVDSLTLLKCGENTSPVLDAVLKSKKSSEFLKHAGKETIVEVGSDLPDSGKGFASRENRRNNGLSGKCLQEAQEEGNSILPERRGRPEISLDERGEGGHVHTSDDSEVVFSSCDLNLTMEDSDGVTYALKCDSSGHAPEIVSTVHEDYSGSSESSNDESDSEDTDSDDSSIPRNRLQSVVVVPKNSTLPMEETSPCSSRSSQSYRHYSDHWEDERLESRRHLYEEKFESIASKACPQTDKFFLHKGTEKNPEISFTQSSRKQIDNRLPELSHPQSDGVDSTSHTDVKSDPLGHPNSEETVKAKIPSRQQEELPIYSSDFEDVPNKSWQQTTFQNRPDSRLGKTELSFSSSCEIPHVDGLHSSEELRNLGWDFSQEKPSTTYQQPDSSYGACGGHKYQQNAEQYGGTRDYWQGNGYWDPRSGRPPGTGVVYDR
Assay: pull-down

binding result: binds
B1: GST-lamin A-CT (387-664 a.a.) (domain or fragment, human, UniProt P02545 387-664, looked up)
chain: LRLSPSPTSQRSRGRASSHSSQTQGGGSVTKKRKLESTESRSSFSQHARTSGRVAVEEVDEEGKFVRLRNKSNEDQSMGNWQIKRQNGDDPLLTYRFPPKFTLKAGQVVTIWAAGAGATHSPPTDLVWKAQNTWGCGNSLRTALINSTGEEVAMRKLVRSVTVVEDDEDEDGDDLLHHHHGSHCSSSGDPAEYNLRSRTVLCGTCGQPADKASASGSGAQVGGPISSGSSASSVTVTRSYRSVGGSGGGSFGDNLVTRSYLLGNSSPRTQSPQNCSIM
